Results on 7 molecules are retold here after patent publication US6576610B1, “Use of a context-dependent functional entity to enhance the efficacy of an agent” (Nuvas, LLC, priority 1999, dated 2003).

Entries after “also recorded” stand apart in the source; their conditions may differ.

One data set concerns factors IX and X. Particulars: Rao et al. 1988; cited from earlier work.
In a further data set the target is T1, Kringle 5 of plasminogen (Homo sapiens, UniProt P00747).
T1 sequence (P00747 481-560 limits assumed): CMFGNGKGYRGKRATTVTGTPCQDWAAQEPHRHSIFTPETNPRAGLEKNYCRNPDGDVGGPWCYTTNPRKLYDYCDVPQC
As to conditions: Chang et al. 1998; read-out: binding to kringle 5 of plasminogen; cited from earlier work.

The next data set deals with NV144 (UniProt P13726).
In the next data set the target is TF 1-218 (UniProt P13726).
In data set [1] the target is T2, blood coagulation factor VIIa (UniProt P08709 61-466).
T2 sequence (looked up): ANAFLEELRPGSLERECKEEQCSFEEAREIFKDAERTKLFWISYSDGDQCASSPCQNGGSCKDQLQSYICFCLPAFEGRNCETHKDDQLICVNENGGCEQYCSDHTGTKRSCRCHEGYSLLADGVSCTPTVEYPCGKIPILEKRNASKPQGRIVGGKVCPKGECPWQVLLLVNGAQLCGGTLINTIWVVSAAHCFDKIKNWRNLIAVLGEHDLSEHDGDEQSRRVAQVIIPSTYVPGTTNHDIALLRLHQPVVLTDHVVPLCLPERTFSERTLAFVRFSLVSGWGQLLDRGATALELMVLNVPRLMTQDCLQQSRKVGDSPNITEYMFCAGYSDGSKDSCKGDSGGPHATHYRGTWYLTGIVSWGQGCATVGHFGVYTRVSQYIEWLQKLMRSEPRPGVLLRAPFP
The data set can be described thus: surface plasmon resonance, Biacore 2000. A general note: SPR reads the build-up and loss of mass on a sensor chip optically.

The subject of the next data set is factor X. The data set is described as follows: Linked functional assay: factor Xa generation by protein:VIIa complex incubated with factor X. It counts as biochemical. As to conditions: for Relative Proteolytic Activity: factor Xa generation, TF 1-218 = 1.00.
The target of data set [2] is T2, blood coagulation factor VIIa. The data set can be described thus: titration of the amidolytic activity of factor VIIa against protein concentration.
Data set [3] has as its system MAT B III breast carcinoma tumors. The data set can be described thus: Syngeneic MAT B III rat breast carcinoma model. It counts as in vivo, Fisher 344 rats. Particulars: NV144 alone. An excerpt:
The MAT B III rat breast carcinoma is very malignant and fast-growing and, unlike many animal tumors, metastasizes. In addition, the tumor-bearing host lives sufficiently long to develop metastatic disease from the primary tumor. As such, the MAT-BIII tumor model has similar characteristics to human tumors.
Fisher 344 rats bearing MAT B III breast carcinoma tumors were used for these studies. Experiments were begun when the tumors reached approximately 170-200 mm3 in size (5-9 days; “day 0”). Tumors in saline treated controls grew very rapidly and reach a size of about 35,000 mm^3 at day 7. In the treatment groups, tumor-bearing rats were treated with NV144 or DOXIL (Sequus Pharmaceuticals, Inc.), either alone or in combination. In the clinic, DOXIL generally is administered at about 4 mg/kg.
At the highest dose of DOXIL (9 mg/kg), survival initially appeared to be similar in both groups of rats; however, none of the animals survived beyond day 23 due to the high dose of DOXIL.

Another data set has as its target T3, factor VIIa (Homo sapiens, UniProt P08709).
T3 sequence (P08709 61-212 limits assumed): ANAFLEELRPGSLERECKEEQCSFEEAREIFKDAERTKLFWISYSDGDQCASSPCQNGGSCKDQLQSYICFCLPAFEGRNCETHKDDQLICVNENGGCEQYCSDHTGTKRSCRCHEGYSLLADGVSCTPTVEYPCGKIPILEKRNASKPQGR
T3 sequence (P08709 213-466 limits assumed): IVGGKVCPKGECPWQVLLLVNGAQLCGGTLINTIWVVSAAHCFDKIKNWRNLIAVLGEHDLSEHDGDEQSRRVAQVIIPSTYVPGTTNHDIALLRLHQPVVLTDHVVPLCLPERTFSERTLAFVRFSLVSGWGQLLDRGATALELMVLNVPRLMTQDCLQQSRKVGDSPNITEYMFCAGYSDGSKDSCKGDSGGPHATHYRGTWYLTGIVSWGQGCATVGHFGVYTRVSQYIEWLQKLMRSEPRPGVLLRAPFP
The data set is described as follows: Surface plasmon resonance (Biacore 2000) binding to factor VIIa. As to conditions: by surface plasmon resonance and amidolytic titration.

The test system of data set [4] is C1300 neuroblastoma tumor spheroid. The data set can be described thus: Intravital microscopy of tumor vessels in skinfold chamber. It counts as in vivo, A/J mouse. Particulars: infused over 30 min.

“TF: integral transmembrane protein receptor tissue factor, trigger of the coagulation cascade”: in the data set on factors IX and X, the “enhancement of enzymatic activation of substrate factors IX and X on binding of factor VIIa” value is ≤ 5,000 fold.

For the molecule `NCCCCCCC(=O)O` [7-aminoheptanoic acid], the Kd on Kringle 5 of plasminogen was 367000 nM.

blood coagulation factor X: the Relative Proteolytic Activity came to 0.86 with NV144 and 1 with TF 1-218.

As to `NCCCCC(=O)O` [5-aminopentanoic acid], the Kd on Kringle 5 of plasminogen was 580000 nM.

B1: TF 1-218 (receptor, human, UniProt P13726 33-250, looked up)
chain: SGTTNTVAAYNLTWKSTNFKTILEWEPKPVNQVYTVQISTKSGDWKSKCFYTTDTECDLTDEIVKDVKQTYLARVFSYPAGNVESTGSAGEPLYENSPEFTPYLETNLGQPTIQSFEQVGTKVNVTVEDERTLVRRNNTFLSLRDVFGKDLIYTLYYWKSSSSGKKTAKTNTNEFLIDVDKGENYCFSVQAVIPSRTVNRKSTDSPVECMGQEKGEFR
notes: range 1-218; also called isolated truncated TF (tTF) domain alone; tTF
For the molecule B1, the Kd in [1] amounted to 3.26 nM; in [2], 4.73 nM. The “Relative Proteolytic Activity” value in the data set with factor X was 1.00.

B2: NV144 (other, human)
chain: PRKLYDGGGGSGGGGSGGGGSTTNTVAAYNLTWKSTNFKTILEWEPKPVNQVYTVQISTKSGDWKSKCFYTTDTECDLTDEIVKDVKQTYLARVFSYPAGNVESTGSAGEPLYENSPEFTPYLETNLGQPTIQSFEQVGTKVNVTVEDERTLVRRNNTFLSLRDVFGKDLIYTLYYWKSSSSGKKTAKTNTNEFLIDVDKGENYCFSVQAVIPSRTVNRKSTDSPVECMG
notes: range 3-211; also called CDFE; context-dependent functional entity
With B2, the Kd in data set [1] was 3.22 nM; in data set [2], 4.32 nM.

B3: NV144: CDFE fusion polypeptide: truncated human TF domain, (Gly4Ser)3 spacer, plasminogen kringle 5 peptide Pro-Arg-Lys-Leu-Tyr-Asp (protein)
chain: B2 chain
Take B3: the “anti-tumor activity when administered alone” value in [3] is “little or no effect; also recorded: no significant anti-tumor activity”. Also, the “affinity for factor VIIa compared with isolated truncated TF (tTF) domain alone” value with factor VIIa is recorded as “comparable”. For the same molecule, in the data set with factor X, the “rate of fluid phase factor Xa generation as compared to tTF” value is recorded as “normal rate” and the “Relative Proteolytic Activity” value came out at 0.86. In data set [4], the “effects on nearby vessels in skin and nearby angiogenic vessels” value is listed as “No similar effects”; the “rate of blood flow in the tumor” value is “general slowing”. Further, the “vascular permeability of tumor vessels” value in data set [4] (plasma leakage into extravascular space and hemorrhage) was “significant and selective changes”.
